Earlier results, collected in paper PMC2895966.

Target: Pyrrhocoricin (Pyrrhocoris apterus) (UniProt P37362)
Sequence (P37362 whole entry): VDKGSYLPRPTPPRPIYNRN

DnaK SBD, sequence (P0A6Y8 389-607): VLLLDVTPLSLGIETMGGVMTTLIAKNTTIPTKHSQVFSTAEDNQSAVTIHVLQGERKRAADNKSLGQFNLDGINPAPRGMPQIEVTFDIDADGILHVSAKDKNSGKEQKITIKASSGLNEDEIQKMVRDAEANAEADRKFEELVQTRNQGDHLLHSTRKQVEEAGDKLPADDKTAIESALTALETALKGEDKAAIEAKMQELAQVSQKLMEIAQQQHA

Kd: 50 µM
Substance: DnaK SBD (from UniProt P0A6Y8)
